This note sets out measurements from the domain aggregation screens of Martell et al. (2025).
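Note: 20 min heating vs room temperature control held 20 min.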

The nature of this series: soluble fraction after stress (log2 fold change); higher = more stays soluble; pooled small domains, quantitative proteomics. To be noted: stress: 75 degC.
For “HMSVFGDNVARLRAEHGMSQRALAERLEITNGTVAAWESRDTLPDYDRIRQIAEIFDVPIPQLFAKYIP”, the “soluble fraction (log2)” value is -1.54. The value for “HMSVISVETAKSKALAHAGLTASKVTFIENKLEWDDGRQVYDIEFYTSDYKEYDYTIDAVSGQVLEFDY” was -1.67; that for “HMSVKLMEVKGASTVVSRQVREAVSIVFPTSSMRLDLVALKARIEGVDAVKRADVYLRNGILEIQIDER” was -2.11.

Consider “HMSVKLYPNPTRSVTTFATDVDKWYLYDNQGKLVSEGNTKTIDVTAFPVGIYFVKTIKGNNSTFVKLIV”, for which the “soluble fraction (log2)” value was -2.14. For “HMSVLNLQTDIPKKYTDVLGTSVKGRLNTLVHNVIINSVDRPVIQMSEEVHEAMQGLRIFMFENVYRNPV”, the “soluble fraction (log2)” value was 0.187.

As to “HMSVLSEQIKEQLMEDIFHKKYKAGDRIVESALARELGVSQASVREALRSLIAMGFLENEPFKGITVR”, the “soluble fraction (log2)” value was -0.000514.

As to “HMSVNAPMPGKIVNVLVSEGQKVNSGDVLLILEAMKMQNEIAATQAGTVKAINVAAGQSVKVGDALVN”, the “soluble fraction (log2)” value is -0.0534. Turning to “HMSVPQENKDLLGRSIEIFYAGKTVEAKVTDTGALAPLGRALDLSPATWRAFGASSISDWGVRGVFYRFVA”, the “soluble fraction (log2)” value turned out to be 0.212.

On to “HMSVSTGTITGSVVNLREEPNTSSKVLDKLPKDTVVYVLSASGEWYNVSYGDKTGWVYGEYLA”, for which the “soluble fraction (log2)” value is -0.737. The value for “HMSVTSEIGAKIKYFRKSKHFSLQEMADLLYKSKSTLSKYENGQISIDIETLYAIAKVLGVHVEQLLYSEP” was -5.12; that for “HMSVTSIEGRVVYDENANKIGIAKQVGIDSTQSMVLVLTKNDGTEGSISWNNIKKIGEIILLGN” was -0.908; that for “HMSWAGRRSLAALEARYRDETGISNLKIKHNGVLGYHIEVPSKSADKLMAPDSGFTHRQTLAGAVR” was 0.228. Turning to “HMSYDAINGYEPSDLRGSLTLEQTASMLNLPLTDVYARLGLPANYPSGATLKDGAADMGMGLSDFKHQLF”, the “soluble fraction (log2)” value is -0.121. For “HMSYLDTLPGRRVAAQGAITGDAGTLAVDGDTWSARVEPGAPDVAPGDEVTVLRIDGATLVVRPLP”, the “soluble fraction (log2)” value was 0.0276.

As for “HMSYPFSEDALKEKIREYLKHNRSINRKVLEAEFHIRKQTALNWLKKLEKSGFLIKEGSRNAPVYFLAE”, the “soluble fraction (log2)” value is -1.83. As for “HMSYQADEIKEKLIDILQNQKTGLSGLEISERIGINRITMTKYLQVFAAEGFIKQKNIGNVIIWFIEDGTE”, the “soluble fraction (log2)” value was -1.05. For “HMSYTYPVARLNHIKGKWYVLVSVPAHLRHLFPNQRDLRRSTGTDDESLAKRKQHALAQEIYDLFD” the value was -0.653; for “HMTAFEPYLVKVMASVLNIRKGPGTSYAITGQIKDKGTYTIVAESGSWGKLKSGAGWISLSYTSKAGKA”, -1.82. For “HMTAFSEQLIKLRKQKGLSQEQLGAAVGVTRQTVSKWELGDTTPELGKLVQLSDYFQLSIDELVGH” the value was -0.703; for “HMTAGTTALNKLQQGMSTQQVQAALGTPSDRTVKESGVELWKYYYPYENMLLYLKFRDGHLVSFGTN”, -0.594. For “HMTAKQDLDSIYRHLVATRKSIAENPKMVSSIDDPQALIKMLDYAIQYFYTDKRDEALAVLEKNEEQLNFR”, the “soluble fraction (log2)” value is -0.347. As to “HMTALTTEDLERRFYAKTYEGESAQKRLARLEISVFGELRQGRPESDRLHDLNNAVLEKERAALNAGAVG”, the “soluble fraction (log2)” value worked out at 0.063. “HMTAMQYVTIKDIADALGISKSSVSRALAGDVHNVSAQTIERVRAKALEMGYLRNNAAVNLR”: the “soluble fraction (log2)” value was -0.413. As to “HMTANDKRNALYRKIEVGRRQLPAMDEVAFRQLLAAEFGVESRKDMSVGQLSRLVNILAEKGAVF”, the “soluble fraction (log2)” value is -0.741. Take “HMTANTLDLTYSQFLENVKNGSVNDVTIRGNNVSGNFSDGRKFKTYAVNDPTLVEKLTKMGVNISAAPL”: the “soluble fraction (log2)” value amounted to 0.405. In the case of “HMTAPELSVGDYLEYRGKEYKVESLDMDGFITLTDTALEDAPRLISRVTFLTDEFIRSGEYMVIT”, the “soluble fraction (log2)” value was -0.811.

For the sequence “HMTAQGDSSDAVQRAITEILRHEDPSHPFSDQQLVIKLRTMDISVSRRTVTKYRKLLHIPSSTHRK”, the “soluble fraction (log2)” value is -3.12. For the sequence “HMTARYQQVEDYIVRRIQDGSWPPGHRLPSEHELVQQFGMSRMTVNRALRDLMQKGRIVRVAGVGSFVAQD”, the “soluble fraction (log2)” value was -1.98.

For “HMTATSKKAAWDEVNKIFPTDYERSAAESERAGYAIFRSTAEGVNAWISDLGDRLEINLPDGKTVNIWIEE”, the “soluble fraction (log2)” value is -0.0996. In the case of “HMTATVPDSEAGIRLDVYAAALLGVSRAGAQKYIESGAVRVNGLPAPKNRRLESGDVIEAVLPDPE”, the “soluble fraction (log2)” value was 0.194.

For “HMTAVAAEQQAQDAYRQTAANNLNEIQAKYKLPDSESDDFFTFAYERGFTQEDFIDIGLVDKIMGDYV”, the “soluble fraction (log2)” value turned out to be 0.19. The value for “HMTAVNEHELMNQFKLSLGYANGDDPQTKLSTDEKNDFMRFKEWATAMTKDSKMGKDPDYLKKLAVQWTLK” was 0.278; that for “HMTAYEGLPVTLIIDGRVFQQNLQKMNLSVEWLRLELKKFGVTNLKEVLFASLDTEGKLFYQLKT” was -0.792. Turning to “HMTDEYYSYIGKTGTTITVLRPAGIAEVEGERLNVVSEGEFIRKGAAILVKEVEGARILVEEVN”, the “soluble fraction (log2)” value is -0.58. As to “HMTDFESYTVRVTATNLNIRKGAGTNFHSAGYIKPGVYTIVEEADGKGATRWGKLKSGMGWISLDYAKK”, the “soluble fraction (log2)” value is -1.04.

Regarding “HMTDGYAMRLERLNSLEEYVLNKGTVSLEDLAERFGVSINTIRRDLNELISRGQIKKVYGGVSSLHD”, the “soluble fraction (log2)” value was -0.252. As to “HMTDIDATSIERAVAKRRHFFLSNIQDLTMKMARRLIEKDLGLAPKHLDAAPFKTRITELVDAVIALGD”, the “soluble fraction (log2)” value was -0.393.

“HMTDIKYLIADGNDIKHWDTASSSYVKVSELPLTSDKFKIYGDDIYHKERTGIIAASPILKIWSPSAE”: the “soluble fraction (log2)” value came to 0.384. Consider “HMTDKLIAYSVDGILNVITSEAQSVKVYAIDGRLVRILQLGEGRNEVSGLAKGIYIVDNRKVAV”, for which the “soluble fraction (log2)” value was -2.71.

Turning to “HMTDLNQIGERIKGLRDALGYSPEKMASILEQKVDDYLAYEEGTKDISLSVLQRIEKEFDIDLSTLLFGT”, the “soluble fraction (log2)” value is -0.333. Turning to “HMTDRKRDAIVQAAIGEFREHGFNGTSMDRVAAAADVSKRTVYNHFPSKEELFEAILLLMWE”, the “soluble fraction (log2)” value is -1.93. For the sequence “HMTDSISLTLNGDPRPFRAGATVADLVRDIGLDPAKVAVERNLEIVPRSTLENVHLADGDVLEIVHFV”, the “soluble fraction (log2)” value stood at 0.0689. With “HMTDTIALRSVIAESGLKYKALAEIMGLSPYTLQMKIDNESEFKASEIDALANALGMDMQQRDSIFF”, the “soluble fraction (log2)” value was -0.536. As to “HMTDVIADMLTRIRNAASSKHQTVDIPSSNLKKEIAKILLEEGYIRDFIEIDDKKQGIIRITL”, the “soluble fraction (log2)” value was -0.692. Turning to “HMTDYREILRLLSLGLSRTQIADSLNVSRTTVIHTLQRAVAQELDWQTAEGMSDRELVAKLFPV”, the “soluble fraction (log2)” value is -3.95. For “HMTEAVYMPALQNKTLEEAQRIVEQYDLELEYTYEANAQVEEGRILSQTPQMGVLVERGEKVQAVVSLG” the value was 1.01; for “HMTEDELLAQFEEILDGYVGKPGGLIPALQTAQKLFGYLPKRVLQLISMKLDIPYSEVTGVVSFYSFFTTV”, 0.28. In the case of “HMTEEEEFEKGFEILVNLSHFNRFSVYKEDEYVIVRIADYDFNEYFKVKKSDVGRIAEFLNENIT”, the “soluble fraction (log2)” value was -2.61. With “HMTEELLNQRKETMLALLNDPTYVPMKLKELAMLLNLSRDQRDELREVMESLEQDGKVILTKRGKYKIP”, the “soluble fraction (log2)” value is -0.261. “HMTEELQDMESRIIEAAKRVFVRKGYEATKMSDIALEVGLGRTALHYYFRTKEMLFDAIFGRLMGV”: the “soluble fraction (log2)” value is -0.702.
